We go through seven molecules from patent publication US20200024360A1 (Janssen / Centocor, published 2020).

For the experiment, the target named is T1, human PSMA (prostate specific membrane antigen), full length (human, UniProt Q04609 1-750).
T1 construct: On LNCaP or C4-2B cells (endogenous) or transduced HEK293F cells; also called FOLH1_HUMAN; hPSMA
The experiment is described as follows: flow cytometry cell binding assay, bispecific antibody titrated on LNCaP cells (human PSMA). How it is done: PSMA×CD3 bispecific antibodies were tested for binding to PSMA positive cell lines LNCAP, human PSMA-HEK, Chimpanzee-PSMA-HEK and Cynomolgous monkey PSMA-HEK. To assess the binding capabilities of the PSMA bispecific antibodies, the cell-binding assay was utilized (described previously). Briefly, PSMA expressing tumor cells are bound by bispecific antibodies at known concentrations and the bound antibody is detected by an anti-human kappa light chain PE conjugated detection reagent (Invitrogen). The Mean Fluorescents Intensity (MFI) is the measure of bound bispecific antibody. The MFI is converted to a relative EC₅₀. EC₅₀ is a commonly used dose-response curve, where the half maximal effective concentration or the EC₅₀ point is defined as the inflection point of the curve. EC₅₀ s were determined by measuring cell bound bispecific and known concentrations. […] The dose response curves were then diluted down to that of background or no bispecific binding. The inflection point of this curve reflects the EC₅₀ point. The calculated EC₅₀ is determined by taking the ug/ml amount of bispecific antibody at the EC₅₀ point and converting it to a molarity value based on the MW of the bispecific antibody. Bispecific antibodies were normalized for protein concentration and then incubated with the same number of cells expressing either human or cyno PSMA. The MFI at each concentration was collected by flow cytometry and plotted as a function of concentration. Data was transformed via log 10 and then plotted. Nonlinear regression of binding curves was done to determine EC₅₀ s. These relative values were used for ranking PSMA binding to target cells.
PSMA×CD3 bispecific antibodies were tested for binding to PSMA positive cell line, LNCAP, to PSMA negative cell line, PC3. To assess the binding capabilities of the PSMA bispecific antibodies, the cell-binding assay was utilized (described previously). Bispecific antibodies were normalized for protein concentration and then incubated with the same number of cells expressing either human or cyno PSMA. The MFI at each concentration was collected by flow cytometry and plotted as a function of concentration.

T1 sequence (Q04609 whole entry): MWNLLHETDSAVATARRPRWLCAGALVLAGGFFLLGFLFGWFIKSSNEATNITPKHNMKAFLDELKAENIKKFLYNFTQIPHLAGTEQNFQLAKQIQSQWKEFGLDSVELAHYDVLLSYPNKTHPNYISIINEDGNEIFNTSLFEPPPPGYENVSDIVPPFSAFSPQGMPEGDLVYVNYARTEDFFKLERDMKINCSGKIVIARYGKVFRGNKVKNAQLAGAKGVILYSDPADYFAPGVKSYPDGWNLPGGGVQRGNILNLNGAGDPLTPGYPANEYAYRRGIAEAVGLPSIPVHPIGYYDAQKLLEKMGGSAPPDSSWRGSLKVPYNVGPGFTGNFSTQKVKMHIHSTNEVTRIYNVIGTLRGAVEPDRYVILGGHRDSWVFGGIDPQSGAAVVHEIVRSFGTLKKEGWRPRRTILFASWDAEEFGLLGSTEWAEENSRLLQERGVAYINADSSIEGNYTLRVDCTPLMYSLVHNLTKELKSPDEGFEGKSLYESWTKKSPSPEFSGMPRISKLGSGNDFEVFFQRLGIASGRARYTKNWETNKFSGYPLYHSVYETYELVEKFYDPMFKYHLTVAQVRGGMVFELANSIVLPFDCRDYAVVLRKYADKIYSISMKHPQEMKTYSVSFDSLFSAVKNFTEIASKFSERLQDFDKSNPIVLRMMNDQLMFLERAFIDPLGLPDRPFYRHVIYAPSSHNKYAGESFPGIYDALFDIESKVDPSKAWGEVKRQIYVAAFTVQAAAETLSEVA

B1: PS3B60 (bispecific antibody, human IgG4 S228P, kappa, lambda, F234A L235A)
heavy 1: not shown
light 1: not shown
heavy 2: EVQLVESGGGLVQPGGSLRLSCAASGFTFNTYAMNWVRQAPGKGLEWVARIRSKYNNYATYYAASVKGRFTISRDDSKNSLYLQMNSLKTEDTAVYYCARHGNFGNSYVSWFAYWGQGTLVTVSSASTKGPSVFPLAPCSRSTSESTAALGCLVKDYFPEPVTVSWNSGALTSGVHTFPAVLQSSGLYSLSSVVTVPSSSLGTKTYTCNVDHKPSNTKVDKRVESKYGPPCPPCPAPEAAGGPSVFLFPPKPKDTLMISRTPEVTCVVVDVSQEDPEVQFNWYVDGVEVHNAKTKPREEQFNSTYRVVSVLTVLHQDWLNGKEYKCKVSNKGLPSSIEKTISKAKGQPREPQVYTLPPSQEEMTKNQVSLTCLVKGFYPSDIAVEWESNGQPENNYKTTPPVLDSDGSFLLYSKLTVDKSRWQEGNVFSCSVMHEALHNHYTQKSLSLSLGK
light 2: QTVVTQEPSLTVSPGGTVTLTCRSSTGAVTTSNYANWVQQKPGQAPRGLIGGTNKRAPGTPARFSGSLLGGKAALTLSGVQPEDEAEYYCALWYSNLWVFGGGTKLTVLGQPKAAPSVTLFPPSSEELQANKATLVCLISDFYPGAVTVAWKADSSPVKAGVETTTPSKQSNNKYAASSYLSLTPEQWKSHRSYSCQVTHEGSTVEKTVAPTECS
notes: IgG4 PAA; PSMA arm first, then CD3 arm (F405L, R409K); also called PSMB344 x CD3B219
Regarding B1, the binding result was “binds”.

B2: PS3B71 (bispecific antibody, human IgG4 S228P, kappa, lambda, F234A L235A)
heavy 1: not shown
light 1: not shown
heavy 2: EVQLVESGGGLVQPGGSLRLSCAASGFTFNTYAMNWVRQAPGKGLEWVARIRSKYNNYATYYAASVKGRFTISRDDSKNSLYLQMNSLKTEDTAVYYCARHGNFGNSYVSWFAYWGQGTLVTVSSASTKGPSVFPLAPCSRSTSESTAALGCLVKDYFPEPVTVSWNSGALTSGVHTFPAVLQSSGLYSLSSVVTVPSSSLGTKTYTCNVDHKPSNTKVDKRVESKYGPPCPPCPAPEAAGGPSVFLFPPKPKDTLMISRTPEVTCVVVDVSQEDPEVQFNWYVDGVEVHNAKTKPREEQFNSTYRVVSVLTVLHQDWLNGKEYKCKVSNKGLPSSIEKTISKAKGQPREPQVYTLPPSQEEMTKNQVSLTCLVKGFYPSDIAVEWESNGQPENNYKTTPPVLDSDGSFLLYSKLTVDKSRWQEGNVFSCSVMHEALHNHYTQKSLSLSLGK
light 2: QTVVTQEPSLTVSPGGTVTLTCRSSTGAVTTSNYANWVQQKPGQAPRGLIGGTNKRAPGTPARFSGSLLGGKAALTLSGVQPEDEAEYYCALWYSNLWVFGGGTKLTVLGQPKAAPSVTLFPPSSEELQANKATLVCLISDFYPGAVTVAWKADSSPVKAGVETTTPSKQSNNKYAASSYLSLTPEQWKSHRSYSCQVTHEGSTVEKTVAPTECS
notes: IgG4 PAA; PSMA arm first, then CD3 arm (F405L, R409K); also called PSMB359 x CD3B219
In the case of B2, the binding result was “binds”.

B3: PS3B64 (bispecific antibody, human IgG4 S228P, kappa, lambda, F234A L235A)
heavy 1: not shown
light 1: not shown
heavy 2: EVQLVESGGGLVQPGGSLRLSCAASGFTFNTYAMNWVRQAPGKGLEWVARIRSKYNNYATYYAASVKGRFTISRDDSKNSLYLQMNSLKTEDTAVYYCARHGNFGNSYVSWFAYWGQGTLVTVSSASTKGPSVFPLAPCSRSTSESTAALGCLVKDYFPEPVTVSWNSGALTSGVHTFPAVLQSSGLYSLSSVVTVPSSSLGTKTYTCNVDHKPSNTKVDKRVESKYGPPCPPCPAPEAAGGPSVFLFPPKPKDTLMISRTPEVTCVVVDVSQEDPEVQFNWYVDGVEVHNAKTKPREEQFNSTYRVVSVLTVLHQDWLNGKEYKCKVSNKGLPSSIEKTISKAKGQPREPQVYTLPPSQEEMTKNQVSLTCLVKGFYPSDIAVEWESNGQPENNYKTTPPVLDSDGSFLLYSKLTVDKSRWQEGNVFSCSVMHEALHNHYTQKSLSLSLGK
light 2: QTVVTQEPSLTVSPGGTVTLTCRSSTGAVTTSNYANWVQQKPGQAPRGLIGGTNKRAPGTPARFSGSLLGGKAALTLSGVQPEDEAEYYCALWYSNLWVFGGGTKLTVLGQPKAAPSVTLFPPSSEELQANKATLVCLISDFYPGAVTVAWKADSSPVKAGVETTTPSKQSNNKYAASSYLSLTPEQWKSHRSYSCQVTHEGSTVEKTVAPTECS
notes: IgG4 PAA; PSMA arm first, then CD3 arm (F405L, R409K); also called PSMB349 x CD3B219
Turning to B3, the binding result is “binds”.

B4: PS3B63 (bispecific antibody, human IgG4 S228P, kappa, lambda, F234A L235A)
heavy 1: not shown
light 1: not shown
heavy 2: EVQLVESGGGLVQPGGSLRLSCAASGFTFNTYAMNWVRQAPGKGLEWVARIRSKYNNYATYYAASVKGRFTISRDDSKNSLYLQMNSLKTEDTAVYYCARHGNFGNSYVSWFAYWGQGTLVTVSSASTKGPSVFPLAPCSRSTSESTAALGCLVKDYFPEPVTVSWNSGALTSGVHTFPAVLQSSGLYSLSSVVTVPSSSLGTKTYTCNVDHKPSNTKVDKRVESKYGPPCPPCPAPEAAGGPSVFLFPPKPKDTLMISRTPEVTCVVVDVSQEDPEVQFNWYVDGVEVHNAKTKPREEQFNSTYRVVSVLTVLHQDWLNGKEYKCKVSNKGLPSSIEKTISKAKGQPREPQVYTLPPSQEEMTKNQVSLTCLVKGFYPSDIAVEWESNGQPENNYKTTPPVLDSDGSFLLYSKLTVDKSRWQEGNVFSCSVMHEALHNHYTQKSLSLSLGK
light 2: QTVVTQEPSLTVSPGGTVTLTCRSSTGAVTTSNYANWVQQKPGQAPRGLIGGTNKRAPGTPARFSGSLLGGKAALTLSGVQPEDEAEYYCALWYSNLWVFGGGTKLTVLGQPKAAPSVTLFPPSSEELQANKATLVCLISDFYPGAVTVAWKADSSPVKAGVETTTPSKQSNNKYAASSYLSLTPEQWKSHRSYSCQVTHEGSTVEKTVAPTECS
notes: IgG4 PAA; PSMA arm first, then CD3 arm (F405L, R409K); also called PSMB347 x CD3B219
Take B4: the binding result is on record as “binds”.

B5: PS3B70 (bispecific antibody, human IgG4 S228P, kappa, lambda, F234A L235A)
heavy 1: not shown
light 1: not shown
heavy 2: EVQLVESGGGLVQPGGSLRLSCAASGFTFNTYAMNWVRQAPGKGLEWVARIRSKYNNYATYYAASVKGRFTISRDDSKNSLYLQMNSLKTEDTAVYYCARHGNFGNSYVSWFAYWGQGTLVTVSSASTKGPSVFPLAPCSRSTSESTAALGCLVKDYFPEPVTVSWNSGALTSGVHTFPAVLQSSGLYSLSSVVTVPSSSLGTKTYTCNVDHKPSNTKVDKRVESKYGPPCPPCPAPEAAGGPSVFLFPPKPKDTLMISRTPEVTCVVVDVSQEDPEVQFNWYVDGVEVHNAKTKPREEQFNSTYRVVSVLTVLHQDWLNGKEYKCKVSNKGLPSSIEKTISKAKGQPREPQVYTLPPSQEEMTKNQVSLTCLVKGFYPSDIAVEWESNGQPENNYKTTPPVLDSDGSFLLYSKLTVDKSRWQEGNVFSCSVMHEALHNHYTQKSLSLSLGK
light 2: QTVVTQEPSLTVSPGGTVTLTCRSSTGAVTTSNYANWVQQKPGQAPRGLIGGTNKRAPGTPARFSGSLLGGKAALTLSGVQPEDEAEYYCALWYSNLWVFGGGTKLTVLGQPKAAPSVTLFPPSSEELQANKATLVCLISDFYPGAVTVAWKADSSPVKAGVETTTPSKQSNNKYAASSYLSLTPEQWKSHRSYSCQVTHEGSTVEKTVAPTECS
notes: IgG4 PAA; PSMA arm first, then CD3 arm (F405L, R409K); also called PSMB358 x CD3B219
B5: the binding result is “binds”.

B6: PS3B62 (bispecific antibody, human IgG4 S228P, kappa, lambda, F234A L235A)
heavy 1: not shown
light 1: not shown
heavy 2: EVQLVESGGGLVQPGGSLRLSCAASGFTFNTYAMNWVRQAPGKGLEWVARIRSKYNNYATYYAASVKGRFTISRDDSKNSLYLQMNSLKTEDTAVYYCARHGNFGNSYVSWFAYWGQGTLVTVSSASTKGPSVFPLAPCSRSTSESTAALGCLVKDYFPEPVTVSWNSGALTSGVHTFPAVLQSSGLYSLSSVVTVPSSSLGTKTYTCNVDHKPSNTKVDKRVESKYGPPCPPCPAPEAAGGPSVFLFPPKPKDTLMISRTPEVTCVVVDVSQEDPEVQFNWYVDGVEVHNAKTKPREEQFNSTYRVVSVLTVLHQDWLNGKEYKCKVSNKGLPSSIEKTISKAKGQPREPQVYTLPPSQEEMTKNQVSLTCLVKGFYPSDIAVEWESNGQPENNYKTTPPVLDSDGSFLLYSKLTVDKSRWQEGNVFSCSVMHEALHNHYTQKSLSLSLGK
light 2: QTVVTQEPSLTVSPGGTVTLTCRSSTGAVTTSNYANWVQQKPGQAPRGLIGGTNKRAPGTPARFSGSLLGGKAALTLSGVQPEDEAEYYCALWYSNLWVFGGGTKLTVLGQPKAAPSVTLFPPSSEELQANKATLVCLISDFYPGAVTVAWKADSSPVKAGVETTTPSKQSNNKYAASSYLSLTPEQWKSHRSYSCQVTHEGSTVEKTVAPTECS
notes: IgG4 PAA; PSMA arm first, then CD3 arm (F405L, R409K); also called PSMB346 x CD3B219
Take B6: the binding result was “binds”.

B7: PS3B61 (bispecific antibody, human IgG4 S228P, kappa, lambda, F234A L235A)
heavy 1: not shown
light 1: not shown
heavy 2: EVQLVESGGGLVQPGGSLRLSCAASGFTFNTYAMNWVRQAPGKGLEWVARIRSKYNNYATYYAASVKGRFTISRDDSKNSLYLQMNSLKTEDTAVYYCARHGNFGNSYVSWFAYWGQGTLVTVSSASTKGPSVFPLAPCSRSTSESTAALGCLVKDYFPEPVTVSWNSGALTSGVHTFPAVLQSSGLYSLSSVVTVPSSSLGTKTYTCNVDHKPSNTKVDKRVESKYGPPCPPCPAPEAAGGPSVFLFPPKPKDTLMISRTPEVTCVVVDVSQEDPEVQFNWYVDGVEVHNAKTKPREEQFNSTYRVVSVLTVLHQDWLNGKEYKCKVSNKGLPSSIEKTISKAKGQPREPQVYTLPPSQEEMTKNQVSLTCLVKGFYPSDIAVEWESNGQPENNYKTTPPVLDSDGSFLLYSKLTVDKSRWQEGNVFSCSVMHEALHNHYTQKSLSLSLGK
light 2: QTVVTQEPSLTVSPGGTVTLTCRSSTGAVTTSNYANWVQQKPGQAPRGLIGGTNKRAPGTPARFSGSLLGGKAALTLSGVQPEDEAEYYCALWYSNLWVFGGGTKLTVLGQPKAAPSVTLFPPSSEELQANKATLVCLISDFYPGAVTVAWKADSSPVKAGVETTTPSKQSNNKYAASSYLSLTPEQWKSHRSYSCQVTHEGSTVEKTVAPTECS
notes: IgG4 PAA; PSMA arm first, then CD3 arm (F405L, R409K); also called PSMB345 x CD3B219
For the molecule B7, the binding result was “binds”.
